Assay [1] deals with T1, E1A binding protein p300 (EP300) (human, UniProt Q09472 2-2414).
T1 construct: Endogenous protein of RA-treated hTS cells; also called ER300
The assay can be described thus: immunoprecipitation and Western blot, RA-treated hTS cells (FIG. 22c).

The target of assay [2] is mechanistic target of rapamycin (mTOR) (human, UniProt P42345 1-2549). The assay can be described thus: immunoprecipitation and Western blot, RA-treated hTS cells (FIG. 28d).

T1 sequence (Q09472 2-2414 limits assumed): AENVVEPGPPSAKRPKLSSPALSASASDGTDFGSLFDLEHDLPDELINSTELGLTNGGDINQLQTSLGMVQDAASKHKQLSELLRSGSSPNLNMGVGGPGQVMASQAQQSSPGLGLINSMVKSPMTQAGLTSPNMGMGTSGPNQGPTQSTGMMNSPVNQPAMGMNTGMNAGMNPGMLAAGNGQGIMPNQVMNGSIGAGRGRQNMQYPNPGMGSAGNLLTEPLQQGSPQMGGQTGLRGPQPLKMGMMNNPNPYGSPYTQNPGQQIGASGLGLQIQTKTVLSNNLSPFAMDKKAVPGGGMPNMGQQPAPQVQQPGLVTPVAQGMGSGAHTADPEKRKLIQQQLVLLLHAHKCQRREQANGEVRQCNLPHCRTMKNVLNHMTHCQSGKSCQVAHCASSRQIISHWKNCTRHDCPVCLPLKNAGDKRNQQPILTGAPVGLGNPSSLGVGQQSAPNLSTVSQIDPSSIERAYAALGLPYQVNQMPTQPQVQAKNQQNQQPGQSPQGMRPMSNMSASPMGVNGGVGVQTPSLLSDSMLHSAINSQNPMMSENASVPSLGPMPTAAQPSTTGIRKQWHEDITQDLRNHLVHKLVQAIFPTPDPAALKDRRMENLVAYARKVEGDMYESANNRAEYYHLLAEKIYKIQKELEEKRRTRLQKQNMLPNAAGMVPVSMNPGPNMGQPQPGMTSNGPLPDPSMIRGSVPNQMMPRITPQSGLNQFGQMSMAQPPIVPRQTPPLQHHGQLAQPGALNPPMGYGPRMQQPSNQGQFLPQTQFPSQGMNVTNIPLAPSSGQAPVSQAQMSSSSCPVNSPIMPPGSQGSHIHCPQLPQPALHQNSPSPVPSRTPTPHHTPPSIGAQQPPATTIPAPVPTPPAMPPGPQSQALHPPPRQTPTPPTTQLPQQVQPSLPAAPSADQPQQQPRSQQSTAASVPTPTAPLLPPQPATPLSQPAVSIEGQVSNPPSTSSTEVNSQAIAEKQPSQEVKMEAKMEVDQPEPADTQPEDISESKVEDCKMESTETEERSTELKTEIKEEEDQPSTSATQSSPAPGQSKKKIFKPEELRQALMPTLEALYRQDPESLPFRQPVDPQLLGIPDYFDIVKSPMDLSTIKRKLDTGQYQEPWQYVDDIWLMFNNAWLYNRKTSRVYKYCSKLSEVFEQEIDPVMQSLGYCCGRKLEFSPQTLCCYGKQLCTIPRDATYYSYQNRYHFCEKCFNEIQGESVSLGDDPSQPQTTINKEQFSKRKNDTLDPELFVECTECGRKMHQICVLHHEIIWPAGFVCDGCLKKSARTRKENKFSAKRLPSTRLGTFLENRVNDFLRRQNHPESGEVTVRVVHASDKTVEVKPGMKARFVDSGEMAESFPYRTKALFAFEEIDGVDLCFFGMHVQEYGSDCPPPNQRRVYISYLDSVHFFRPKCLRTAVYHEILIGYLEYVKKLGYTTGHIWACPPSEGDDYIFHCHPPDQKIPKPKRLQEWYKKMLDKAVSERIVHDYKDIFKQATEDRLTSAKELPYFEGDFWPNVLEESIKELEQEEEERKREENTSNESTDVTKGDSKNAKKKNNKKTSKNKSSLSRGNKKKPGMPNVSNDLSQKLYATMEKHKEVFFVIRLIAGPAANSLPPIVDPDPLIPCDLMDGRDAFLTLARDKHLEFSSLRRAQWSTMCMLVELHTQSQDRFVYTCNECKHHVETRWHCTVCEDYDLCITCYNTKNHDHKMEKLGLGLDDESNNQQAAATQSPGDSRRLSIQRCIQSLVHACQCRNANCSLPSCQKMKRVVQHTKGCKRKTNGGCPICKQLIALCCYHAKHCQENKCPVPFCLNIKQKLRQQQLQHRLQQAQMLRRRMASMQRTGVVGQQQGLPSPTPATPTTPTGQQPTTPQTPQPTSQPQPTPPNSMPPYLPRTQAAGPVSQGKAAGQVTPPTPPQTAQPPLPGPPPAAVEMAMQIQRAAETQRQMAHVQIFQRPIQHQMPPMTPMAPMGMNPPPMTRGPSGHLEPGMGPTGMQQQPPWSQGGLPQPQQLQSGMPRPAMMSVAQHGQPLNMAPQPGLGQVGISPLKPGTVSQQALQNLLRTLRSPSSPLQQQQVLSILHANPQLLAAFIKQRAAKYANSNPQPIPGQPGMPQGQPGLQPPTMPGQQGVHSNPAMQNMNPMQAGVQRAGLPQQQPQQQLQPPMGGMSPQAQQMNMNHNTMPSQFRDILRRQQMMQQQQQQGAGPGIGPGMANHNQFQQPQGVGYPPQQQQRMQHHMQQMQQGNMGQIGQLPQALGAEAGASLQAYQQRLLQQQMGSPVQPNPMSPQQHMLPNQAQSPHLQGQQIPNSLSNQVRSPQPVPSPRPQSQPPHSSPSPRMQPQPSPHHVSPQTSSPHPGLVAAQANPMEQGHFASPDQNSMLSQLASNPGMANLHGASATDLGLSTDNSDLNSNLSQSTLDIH

B1: myocyte enhancer factor 2A (MEF2A) (other, human, UniProt Q02078 1-507, looked up)
chain: MGRKKIQITRIMDERNRQVTFTKRKFGLMKKAYELSVLCDCEIALIIFNSSNKLFQYASTDMDKVLLKYTEYNEPHESRTNSDIVEALNKKEHRGCDSPDPDTSYVLTPHTEEKYKKINEEFDNMMRNHKIAPGLPPQNFSMSVTVPVTSPNALSYTNPGSSLVSPSLAASSTLTDSSMLSPPQTTLHRNVSPGAPQRPPSTGNAGGMLSTTDLTVPNGAGSSPVGNGFVNSRASPNLIGATGANSLGKVMPTKSPPPPGGGNLGMNSRKPDLRVVIPPSSKGMMPPLSEEEELELNTQRISSSQATQPLATPVVSVTTPSLPPQGLVYSAMPTAYNTDYSLTSADLSALQGFNSPGMLSLGQVSAWQQHHLGQAALSSLVAGGQLSQGSNLSINTNQNISIKSEPISPPRDRMTPSGFQQQQQQQQQQQPPPPPQPQPQPPQPQPRQEMGRSPVDSLSSSSSSYDGSDREDPRGDFHSPIVLGRPPNTEDRESPSVKRMRMDAWVT
notes: Endogenous protein of RA-treated hTS cells
As to B1, in assay [1], the binding result is listed as “binds”.

B2: rac-gamma serine/threonine-protein kinase (AKt3) (enzyme)
chain: SDVTIVKEGWVQKRGEYIKNWRPRYFLLKTDGSFIGYKEKPQDVDLPYPLNNFSVAKCQLMKTERPKPNTFIIRCLQWTTVIERTFHVDTPEEREEWTEAIQAVADRLQRQEEERMNCSPTSQIDNIGEEEMDASTTHHKRKTMNDFDYLKLLGKGTFGKVILVREKASGKYYAMKILKKEVIIAKDEVAHTLTESRVLKNTRHPFLTSLKYSFQTKDRLCFVMEYVNGGELFFHLSRERVFSEDRTRFYGAEIVSALDYLHSGKIVYRDLKLENLMLDKDGHIKITDFGLCKEGITDAATMKTFCGTPEYLAPEVLEDNDYGRAVDWWGLGVVMYEMMCGRLPFYNQDHEKLFELILMEDIKFPRTLSSDAKSLLSGLLIKDPNKRLGGGPDDAKEIMRHSFFSGVNWQDVYDKKLVPPFKPQVTSETDTRYFDEEFTAQTITITPPEKYDEDGMDCMDNERRPHFPQFSYSASGRE
notes: as for B1
Take B2: in assay [2], the binding result is listed as “binds”.

For the origin of these results see patent US9574173 (ACCELERATED BIOSCIENCES, dated 2017).
